Measured values published in patent publication US20260184748A1 (University of Pennsylvania, published 2026).
Where no end group is shown, it is not given here.

Tests used:
Assay in all cases: cell-based or functional assay
NPSR1B = biological target: T1, NPSR1B (UniProt Q6W5P4-4 1-377, limits assumed)
T1 sequence (looked up): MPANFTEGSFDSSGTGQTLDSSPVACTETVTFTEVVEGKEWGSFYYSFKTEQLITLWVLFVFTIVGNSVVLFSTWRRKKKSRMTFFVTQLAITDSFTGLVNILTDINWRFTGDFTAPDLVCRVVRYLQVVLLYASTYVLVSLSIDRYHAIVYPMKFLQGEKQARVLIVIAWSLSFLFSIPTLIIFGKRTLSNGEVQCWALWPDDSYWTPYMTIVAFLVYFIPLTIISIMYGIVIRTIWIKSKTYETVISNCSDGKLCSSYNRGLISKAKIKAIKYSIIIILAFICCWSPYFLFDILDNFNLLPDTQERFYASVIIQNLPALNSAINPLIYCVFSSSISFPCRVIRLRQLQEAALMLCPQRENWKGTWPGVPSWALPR

P2RY1 = P2RY1 (UniProt P47900 1-373)
Chain of P2RY1 (P47900 whole entry): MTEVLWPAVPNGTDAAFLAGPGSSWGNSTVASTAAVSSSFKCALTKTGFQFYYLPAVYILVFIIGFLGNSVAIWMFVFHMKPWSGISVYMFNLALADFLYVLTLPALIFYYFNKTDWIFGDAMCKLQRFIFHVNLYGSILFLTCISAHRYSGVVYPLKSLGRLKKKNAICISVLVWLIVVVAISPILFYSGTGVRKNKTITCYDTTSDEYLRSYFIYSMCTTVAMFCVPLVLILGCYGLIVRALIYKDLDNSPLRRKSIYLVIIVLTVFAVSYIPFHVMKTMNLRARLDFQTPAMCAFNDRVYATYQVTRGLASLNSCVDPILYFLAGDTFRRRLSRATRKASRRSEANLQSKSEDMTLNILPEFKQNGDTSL

CCR10 = biological target: T2, CCR10 (UniProt P46092 1-362)
T2 sequence (looked up): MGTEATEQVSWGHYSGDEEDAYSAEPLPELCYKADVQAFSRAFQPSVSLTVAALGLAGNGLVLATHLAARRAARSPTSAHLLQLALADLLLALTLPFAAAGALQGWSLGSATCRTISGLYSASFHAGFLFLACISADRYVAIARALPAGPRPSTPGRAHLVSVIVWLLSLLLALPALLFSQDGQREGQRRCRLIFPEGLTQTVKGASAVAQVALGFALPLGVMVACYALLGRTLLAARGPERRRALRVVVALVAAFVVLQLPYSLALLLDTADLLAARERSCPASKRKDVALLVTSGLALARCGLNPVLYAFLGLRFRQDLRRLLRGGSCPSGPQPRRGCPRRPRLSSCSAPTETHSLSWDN

EDNRA = biological target: T3, EDNRA (UniProt P25101 21-427)
T3 sequence (looked up): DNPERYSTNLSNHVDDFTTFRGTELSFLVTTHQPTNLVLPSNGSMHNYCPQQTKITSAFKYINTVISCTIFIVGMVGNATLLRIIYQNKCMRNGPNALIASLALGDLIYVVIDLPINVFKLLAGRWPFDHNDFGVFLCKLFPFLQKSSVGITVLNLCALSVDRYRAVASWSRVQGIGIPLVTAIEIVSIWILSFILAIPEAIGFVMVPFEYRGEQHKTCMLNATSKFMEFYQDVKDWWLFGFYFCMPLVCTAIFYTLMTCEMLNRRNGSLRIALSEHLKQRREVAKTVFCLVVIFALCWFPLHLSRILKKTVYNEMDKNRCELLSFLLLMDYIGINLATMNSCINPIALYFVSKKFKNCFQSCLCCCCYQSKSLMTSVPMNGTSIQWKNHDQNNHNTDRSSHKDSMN

P2RY4 = P2RY4 (UniProt P51582 1-365)
Chain of P2RY4 (P51582 whole entry): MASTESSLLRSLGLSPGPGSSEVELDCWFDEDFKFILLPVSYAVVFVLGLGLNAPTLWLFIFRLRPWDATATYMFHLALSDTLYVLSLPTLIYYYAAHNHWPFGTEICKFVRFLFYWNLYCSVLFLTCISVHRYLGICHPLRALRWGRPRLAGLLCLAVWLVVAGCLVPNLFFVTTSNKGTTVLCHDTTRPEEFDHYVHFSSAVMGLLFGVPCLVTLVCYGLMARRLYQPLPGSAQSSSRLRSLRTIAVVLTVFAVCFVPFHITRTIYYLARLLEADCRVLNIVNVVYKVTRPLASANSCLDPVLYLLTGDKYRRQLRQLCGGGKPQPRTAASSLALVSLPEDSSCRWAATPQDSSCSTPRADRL

P2RY6 = P2RY6 (UniProt Q15077 1-328)
Chain of P2RY6 (Q15077 whole entry): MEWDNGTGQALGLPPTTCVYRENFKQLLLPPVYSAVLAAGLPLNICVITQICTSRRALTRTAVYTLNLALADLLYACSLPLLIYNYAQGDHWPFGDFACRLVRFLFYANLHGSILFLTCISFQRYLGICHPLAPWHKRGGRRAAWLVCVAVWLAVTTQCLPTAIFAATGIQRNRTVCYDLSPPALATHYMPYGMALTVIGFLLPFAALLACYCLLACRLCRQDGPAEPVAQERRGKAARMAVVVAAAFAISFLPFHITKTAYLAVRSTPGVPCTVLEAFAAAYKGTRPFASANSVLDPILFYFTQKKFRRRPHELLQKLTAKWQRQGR

PPYR1 = PPYR1 (UniProt P50391 1-375)
Chain of PPYR1 (P50391 whole entry): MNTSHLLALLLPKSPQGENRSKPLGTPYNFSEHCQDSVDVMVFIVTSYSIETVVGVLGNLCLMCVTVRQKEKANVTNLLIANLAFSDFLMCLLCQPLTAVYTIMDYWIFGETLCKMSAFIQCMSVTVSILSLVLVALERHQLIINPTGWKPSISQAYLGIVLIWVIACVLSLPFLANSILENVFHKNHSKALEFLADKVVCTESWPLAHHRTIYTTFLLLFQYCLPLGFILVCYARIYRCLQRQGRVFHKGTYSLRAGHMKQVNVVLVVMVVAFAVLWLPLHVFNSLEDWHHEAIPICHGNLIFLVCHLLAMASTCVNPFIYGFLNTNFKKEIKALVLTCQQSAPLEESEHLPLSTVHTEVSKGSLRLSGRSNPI

MC1R = MC1R (UniProt Q01726 1-317)
Chain of MC1R (Q01726 whole entry): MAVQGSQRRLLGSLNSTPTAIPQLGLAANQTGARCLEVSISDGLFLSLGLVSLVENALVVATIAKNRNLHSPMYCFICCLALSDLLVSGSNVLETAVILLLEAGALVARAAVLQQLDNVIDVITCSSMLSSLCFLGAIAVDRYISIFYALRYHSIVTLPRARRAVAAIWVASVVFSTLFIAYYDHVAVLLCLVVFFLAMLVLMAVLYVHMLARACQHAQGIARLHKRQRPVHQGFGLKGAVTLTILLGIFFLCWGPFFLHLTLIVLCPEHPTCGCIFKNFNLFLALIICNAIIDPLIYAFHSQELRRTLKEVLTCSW

SSTR3 = SSTR3 (UniProt P32745 1-418)
Chain of SSTR3 (P32745 whole entry): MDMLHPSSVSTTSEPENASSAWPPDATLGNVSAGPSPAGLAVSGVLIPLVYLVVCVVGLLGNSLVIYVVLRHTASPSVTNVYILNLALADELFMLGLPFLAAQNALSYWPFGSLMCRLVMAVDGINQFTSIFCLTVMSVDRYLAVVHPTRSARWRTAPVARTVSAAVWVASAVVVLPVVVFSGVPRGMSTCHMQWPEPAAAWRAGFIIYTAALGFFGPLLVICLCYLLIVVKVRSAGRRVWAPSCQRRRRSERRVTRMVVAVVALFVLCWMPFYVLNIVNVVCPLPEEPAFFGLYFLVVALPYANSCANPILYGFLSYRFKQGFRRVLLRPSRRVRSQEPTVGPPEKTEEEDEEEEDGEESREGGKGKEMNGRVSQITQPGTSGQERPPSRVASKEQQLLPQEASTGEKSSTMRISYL

EDG1 = EDG1 (UniProt P21453 1-382)
Chain of EDG1 (P21453 whole entry): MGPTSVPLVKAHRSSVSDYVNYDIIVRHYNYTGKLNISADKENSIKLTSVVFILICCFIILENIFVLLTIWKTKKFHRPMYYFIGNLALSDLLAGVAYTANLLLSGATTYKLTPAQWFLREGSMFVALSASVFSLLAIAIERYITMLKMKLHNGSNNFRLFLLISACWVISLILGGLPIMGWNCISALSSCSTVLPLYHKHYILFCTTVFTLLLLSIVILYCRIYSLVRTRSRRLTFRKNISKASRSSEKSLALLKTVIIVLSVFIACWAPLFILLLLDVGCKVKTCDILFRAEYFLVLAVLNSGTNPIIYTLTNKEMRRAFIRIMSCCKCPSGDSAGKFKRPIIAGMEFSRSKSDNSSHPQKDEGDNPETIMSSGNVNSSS

CXCR5 = biological target: T4, CXCR5 (UniProt P32302 1-372)
T4 sequence (looked up): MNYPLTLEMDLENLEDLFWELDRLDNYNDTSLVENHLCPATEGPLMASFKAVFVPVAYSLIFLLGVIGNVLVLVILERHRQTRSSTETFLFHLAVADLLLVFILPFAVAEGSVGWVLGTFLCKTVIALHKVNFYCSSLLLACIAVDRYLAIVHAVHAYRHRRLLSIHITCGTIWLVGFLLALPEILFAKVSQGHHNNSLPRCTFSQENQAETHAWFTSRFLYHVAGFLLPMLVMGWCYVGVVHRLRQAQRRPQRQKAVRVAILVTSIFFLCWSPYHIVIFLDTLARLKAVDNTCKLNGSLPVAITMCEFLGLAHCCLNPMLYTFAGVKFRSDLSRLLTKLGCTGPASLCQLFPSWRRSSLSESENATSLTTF

ADORA3 = biological target: T5, ADORA3 (UniProt P0DMS8 1-318)
T5 sequence (looked up): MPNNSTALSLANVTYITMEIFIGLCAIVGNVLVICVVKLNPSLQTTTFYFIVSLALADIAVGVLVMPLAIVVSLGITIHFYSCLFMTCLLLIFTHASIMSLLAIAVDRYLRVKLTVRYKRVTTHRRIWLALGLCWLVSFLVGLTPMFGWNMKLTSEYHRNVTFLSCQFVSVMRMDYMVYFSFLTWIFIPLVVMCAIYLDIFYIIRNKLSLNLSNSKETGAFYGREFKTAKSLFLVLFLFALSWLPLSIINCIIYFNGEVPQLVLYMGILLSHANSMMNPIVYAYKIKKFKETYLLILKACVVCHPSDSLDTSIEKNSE

PTHR2 = PTHR2 (UniProt P49190 25-550)
Chain of PTHR2 (P49190 25-550 limits assumed): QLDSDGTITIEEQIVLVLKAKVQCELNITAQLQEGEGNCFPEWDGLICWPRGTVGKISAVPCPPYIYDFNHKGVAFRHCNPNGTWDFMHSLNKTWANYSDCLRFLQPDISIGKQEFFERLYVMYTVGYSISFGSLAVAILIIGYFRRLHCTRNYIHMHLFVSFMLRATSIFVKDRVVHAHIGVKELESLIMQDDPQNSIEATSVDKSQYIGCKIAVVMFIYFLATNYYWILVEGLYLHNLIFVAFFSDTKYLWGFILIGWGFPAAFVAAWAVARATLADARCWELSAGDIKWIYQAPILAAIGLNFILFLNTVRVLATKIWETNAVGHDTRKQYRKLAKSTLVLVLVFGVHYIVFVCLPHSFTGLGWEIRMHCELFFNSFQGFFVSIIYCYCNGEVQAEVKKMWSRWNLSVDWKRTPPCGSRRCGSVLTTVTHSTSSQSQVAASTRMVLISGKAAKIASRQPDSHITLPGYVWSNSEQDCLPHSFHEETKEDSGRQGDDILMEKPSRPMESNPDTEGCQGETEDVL

CALCRL-RAMP3 = CALCRL-RAMP3 (UniProt Q16602 23-461; O60896 24-148)
Chain of CALCRL-RAMP3 (Q16602 23-461 limits assumed, chain 1 of 2): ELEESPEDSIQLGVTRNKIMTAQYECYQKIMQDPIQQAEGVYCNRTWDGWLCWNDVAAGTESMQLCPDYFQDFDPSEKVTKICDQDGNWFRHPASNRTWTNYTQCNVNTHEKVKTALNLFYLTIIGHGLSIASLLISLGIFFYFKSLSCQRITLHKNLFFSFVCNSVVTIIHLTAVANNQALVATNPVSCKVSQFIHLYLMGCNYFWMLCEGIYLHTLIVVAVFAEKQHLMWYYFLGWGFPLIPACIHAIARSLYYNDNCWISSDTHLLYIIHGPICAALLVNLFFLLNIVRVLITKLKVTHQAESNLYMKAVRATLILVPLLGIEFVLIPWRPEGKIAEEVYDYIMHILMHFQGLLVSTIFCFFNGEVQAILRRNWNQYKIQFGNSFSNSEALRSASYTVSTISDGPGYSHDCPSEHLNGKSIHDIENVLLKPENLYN
Chain of CALCRL-RAMP3 (O60896 24-148 limits assumed, chain 2 of 2): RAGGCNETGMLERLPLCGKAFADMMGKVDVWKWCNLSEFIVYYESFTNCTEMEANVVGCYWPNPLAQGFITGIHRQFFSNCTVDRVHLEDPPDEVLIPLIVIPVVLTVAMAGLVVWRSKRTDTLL

HRH2 = HRH2 (UniProt P25021 1-359)
Chain of HRH2 (P25021 whole entry): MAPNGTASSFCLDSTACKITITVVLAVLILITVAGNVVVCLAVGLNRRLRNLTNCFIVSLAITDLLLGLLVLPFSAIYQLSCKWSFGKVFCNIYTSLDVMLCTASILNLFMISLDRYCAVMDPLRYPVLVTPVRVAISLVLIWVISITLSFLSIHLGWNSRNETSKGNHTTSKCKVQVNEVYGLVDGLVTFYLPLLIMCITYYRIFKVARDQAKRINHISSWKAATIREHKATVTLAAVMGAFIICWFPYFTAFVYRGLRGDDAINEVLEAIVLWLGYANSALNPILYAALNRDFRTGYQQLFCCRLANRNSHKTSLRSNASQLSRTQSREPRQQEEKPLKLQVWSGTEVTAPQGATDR

CCR6 = biological target: T6, CCR6 (UniProt P51684 1-374)
T6 sequence (looked up): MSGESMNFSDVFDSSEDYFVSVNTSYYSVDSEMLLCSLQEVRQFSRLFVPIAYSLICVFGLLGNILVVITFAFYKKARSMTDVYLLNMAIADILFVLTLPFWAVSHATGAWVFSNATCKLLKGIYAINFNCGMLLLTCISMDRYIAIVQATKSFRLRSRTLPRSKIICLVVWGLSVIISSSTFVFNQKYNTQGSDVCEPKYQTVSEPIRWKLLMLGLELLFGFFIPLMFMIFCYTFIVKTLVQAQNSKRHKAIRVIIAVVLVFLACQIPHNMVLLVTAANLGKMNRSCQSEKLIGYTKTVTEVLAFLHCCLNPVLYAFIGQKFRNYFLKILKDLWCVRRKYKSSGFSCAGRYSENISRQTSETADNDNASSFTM

B1: octadecaneuropeptide (ODN) (peptide)
peptide: QATVGDVNTDRPGLLDLK
modifications: also: synthesised on Rink amide resin, C-terminal amide not given here outright
% Activity, arrestin, antagonist mode, 2.5 uM (NPSR1B): 15.5%
% Activity, arrestin, antagonist mode, 2.5 uM (P2RY1): -6.4%
% Activity, arrestin, antagonist mode, 2.5 uM (CCR10): -16.6%
% Activity, arrestin, antagonist mode, 2.5 uM (EDNRA): 2.5%
% Activity, arrestin, antagonist mode, 2.5 uM (P2RY4): 12.9%
% Activity, arrestin, antagonist mode, 2.5 uM (P2RY6): -15.1%
% Activity, arrestin, antagonist mode, 2.5 uM (PPYR1): -11.4%
% Activity, arrestin, antagonist mode, 2.5 uM (MC1R): 0.4%
% Activity, arrestin, antagonist mode, 2.5 uM (SSTR3): 4.2%
% Activity, arrestin, antagonist mode, 2.5 uM (EDG1): -25.9%
% Activity, arrestin, antagonist mode, 2.5 uM (CXCR5): -18.9%
% Activity, arrestin, antagonist mode, 2.5 uM (ADORA3): 0.5%
% Activity, arrestin, antagonist mode, 2.5 uM (PTHR2): 4.5%
% Activity, arrestin, antagonist mode, 2.5 uM (CALCRL-RAMP3): -3.5%
% Activity, arrestin, antagonist mode, 2.5 uM (HRH2): -13.3%
% Activity, arrestin, antagonist mode, 2.5 uM (CCR6): -14.8%
